Assay [1] concerns the target Recombinant perlecan domain I (PlnDI), undigested (UniProt Q05793). The assay is described as follows: far-Western, overlay or dot blot; solution phase, pH 6.0: PlnDI (5 ug) pre-incubated with 20 ng VEGF165 for 1 hr at room temperature (25 mM HEPES), then blotted onto nitrocellulose; bound VEGF165 detected with anti-VEGF165 antibodies; background subtracted.
Assay [2] addresses PlnDI pre-digested with a heparinase cocktail (heparinases I, II and III). The assay is described as follows: far-Western, overlay or dot blot; solid phase: PlnDI, undigested or pre-digested with heparinase cocktail +/- chondroitinase ABC, immobilised on nitrocellulose and incubated with VEGF165; bound VEGF165 detected with VEGF monoclonal antibodies, densitometry; heparin 0.25 ug/ml for competitive inhibition.

The target in assay [3] is Recombinant perlecan domain I (PlnDI), undigested (UniProt Q05793). The assay is described as above.
Assay [4] shares this target. The assay is described as follows: far-Western, overlay or dot blot; solution phase, pH 7.0: PlnDI (5 ug), untreated or pre-digested with heparinase cocktail and/or chondroitinase ABC, pre-incubated with 20 ng VEGF165 for 1 hr at room temperature (25 mM HEPES), then blotted onto nitrocellulose; bound VEGF165 detected with anti-VEGF165 antibodies; background subtracted.

Turning to “Recombinant human vascular endothelial growth factor-165 (ligand)”, the results for the percent reduction of binding against pH 8.0 in assay [1] and in assay [4] were 80% and 50%, respectively. In assay [2], the percent reduction of binding against undigested PlnDI was determined as 75%. Besides, in assay [3], the percent of binding prevented by heparin 0.25 ug/ml worked out at 80%.

Source of the values: paper PMC2987766.
